Measurements from patent US20140037648A1 (HUMABS BIOMED, published 2014).

Experiments:
[1] = molecular target: F protein of BRSV strain RB94 (BRSV (strain RB94)); assay: cell-based or functional assay
[2] = molecular target: F protein of PVM strain 15 (PVM (strain 15)); assay: cell-based or functional assay
[3] = molecular target: T1, stabilized form of the full-length pre-fusion RSV F protein (RSV); assay: surface plasmon resonance
T1 construct: also called pre-fusion F protein; RSV F pre-fusion recombinant protein

[4] = molecular target: F protein of RSV 18537 (B, Washington District of Columbia US, 1962; B/18537/62) (RSV (strain 18537), UniProt P13843 26-574); assay: cell-based or functional assay
[5] = molecular target: F protein of RSV 9320 (B, Massachusetts US, 1977; B/9320/77) (RSV (strain 9320)); assay: cell-based or functional assay
[6] = molecular target: F protein of RSV WV/14617/85 (B, Huntington West Virginia, 1985; B/14617/85) (RSV (strain WV/14617/85)); assay: cell-based or functional assay
[7] = molecular target: T2, F protein of RSV strain A2 (A, 1961 Australia; A/A2/61) (RSV (strain A2), UniProt P03420 26-574); assay: cell-based or functional assay
[8] = molecular target: T2, F protein of RSV strain A2 (A, 1961 …); assay: cell-based or functional assay; remark: listed apart in the source

Binder | IC50, neutralization of BRSV strain RB94 [1] [mg/L] | IC50, neutralization of PVM strain 15 [2] [mg/L] | Kd [3] [nM] | Neutralization IC50 [4] [mg/L] | Neutralization IC50 [5] [mg/L] | Neutralization IC50 [6] [mg/L] | Neutralization IC50 [7] [mg/L] | IC50 (ng/ml), microneutralization [8] [ng/mL]
HMB3210v3 (antibody, V domains shown, also called HMB3210 variant 3) VH: EVQLVESGGGLVKPGGSLRLSCAASGFTFSSYSMNWVRQAPGKGLEWVSSISASSSYSDYADSAKGRFTISRDNAKTSLFLQMNSLRAEDTAIYFCARARATGYSSITPYFDIWGQGTLVTVSS VL: QSVVTQPPSVSGAPGQRVTISCTGSSSNIGAGYDVHWYQQLPGTAPKLLIYDNNNRPSGVPDRFSASKSGTSASLAITGLQAEDEADYYCQSYDRSLSGVFGTGTKVTVL | 0.01 | 0.1 | 0.1 |  |  |  |  | 
Palivizumab (antibody, V domains shown) VH: QVTLRESGPALVKPTQTLTLTCTFSGFSLSTSGMSVGWIRQPPGKALEWLADIWWDDKKDYNPSLKSRLTISKDTSKNQVVLKVTNMDPADTATYYCARSMITNWYFDVWGAGTTVTVSS VL: DIQMTQSPSTLSASVGDRVTITCKCQLSVGYMHWYQQKPGKAPKLLIYDTSKLASGVPSRFSGSGSGTEFTLTISSLQPDDFATYYCFQGSGYPFTFGGGTKLEIK |  |  |  | 0.143 | 0.069 | 0.129 | 0.617 | 524
